In publication PMC7118173 (Nature Communications, 2020):

Molecular target: the molecule itself
Experiment: negative stain electron microscopy; MtbSepFΔML 50 µM in 50 mM HEPES pH 7.4, 300 mM KCl, 10 mM MgCl2

B1: M. tuberculosis SepFΔML (domain or fragment)
chain: EDGHPLSKITTLRPKDYSEARTIGERFRDGSPVIMDLVSMDNADAKRLVDFAAGLAFALRGSFDKVATKVFLLSPADVDVSPEERRRIAETGFYAYQ
notes: also called MtbSepFΔML
binding result: binds
